Assay results taken from patent US20260049144A1 (Johns Hopkins, published 2026).

Legend:
PD-L1 on cells [1] = biological target: PD-L1 on cells (UniProt Q9NZQ7); assay: equilibrium binding to cells (method 'Cell'; cell line not stated)
PD-L1 on cells [2] = biological target: PD-L1 on cells (UniProt Q9NZQ7); assay: cell-based or functional assay
[3] = biological target: T1, PD-L1 extracellular domain (ECD) (UniProt Q9NZQ7 19-238, limits assumed); assay: yeast-displayed clone, soluble PD-L1 titration, flow cytometry
T1 construct: extracellular domain; Soluble PD-L1 used in the yeast-display titrations and in BLI; Tags or biotinylation are not described; also called Programmed death-ligand 1; CD274

[4] = biological target: T1, PD-L1 extracellular domain (ECD); assay: BLI, equilibrium binding, soluble fragment on immobilized PD-L1
[5] = biological target: T1, PD-L1 extracellular domain (ECD); assay: BLI competition: B8 VNAR immobilized on the tip, 100 nM PD-L1, soluble B8 VNAR titrated as competitor

T1 sequence (Q9NZQ7 19-238 limits assumed): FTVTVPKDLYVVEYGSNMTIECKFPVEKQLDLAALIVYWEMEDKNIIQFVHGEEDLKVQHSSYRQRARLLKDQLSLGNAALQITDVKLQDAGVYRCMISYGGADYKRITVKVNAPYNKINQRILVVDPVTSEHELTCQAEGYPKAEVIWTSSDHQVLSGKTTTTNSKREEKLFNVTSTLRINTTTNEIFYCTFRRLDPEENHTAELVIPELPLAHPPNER
PD-L1 on cells, sequence (Q9NZQ7 19-290 limits assumed): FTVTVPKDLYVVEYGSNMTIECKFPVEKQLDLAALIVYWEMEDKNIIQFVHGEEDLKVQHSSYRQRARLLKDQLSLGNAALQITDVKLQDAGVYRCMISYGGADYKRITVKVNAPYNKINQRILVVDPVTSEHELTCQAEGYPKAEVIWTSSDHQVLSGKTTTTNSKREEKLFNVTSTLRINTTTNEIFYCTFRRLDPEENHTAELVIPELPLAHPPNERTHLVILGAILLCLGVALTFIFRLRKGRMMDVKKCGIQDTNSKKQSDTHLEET

Binder | Kd [3] [nM] | Kd [4] [nM] | also measured
TS1521 (VNAR, part only; not given: atezolizumab heavy and light chains, part only) heavy, part: ARVDQTPQTITKETGESLTINCVLRDASYALGSTCWYRKKSGSTNEESISIGGRYVETVNSGSKSFSLRINDLTVEDSGTYRCGVDSWCPPVCSWAYAGCGDGTAVTVNGGGGSGGGGSGGGGS light, part: GGGGSGGGGSARVDQTPQTITKETGESLTINCVVRDTACALVRTFWYRKKSGSTNEESISKGGRYVETVNRGSKSFSLRINDLTVEDSGTYRCKVFGWCRMRDVYGGGTVVTVN | – | – | Kd (PD-L1 on cells [1]): 0.204 nM; TCR activation (NFAT-induced luminescence), FC50, antibody continuously present (PD-L1 on cells [2]): 0.51 nM; TCR activation (NFAT-induced luminescence), potency, antibody removed before addition of effector cells (PD-L1 on cells [2]): 0.95 nM; reduction in TCR activation potency, continued presence versus removal of antibody (PD-L1 on cells [2]): 1.9 fold
B11 VNAR (VNAR) VNAR: ARVDQTPQTITKETGESLTINCVLRDSNCALSSTYWYRKKSGSTNEESISKGGRYVETVNSGSKSFSLRINDLTVEDSGTYRCRLFVSWLSDYDCATYYVSGGGTVVTVN | > 1000 | – | –
B8 VNAR (VNAR, VNAR (shark single domain); Measured on yeast and as a soluble fragment (BLI); Not the same as B8 scFv) VNAR: ARVDQTPQTITKETGESLTINCVLRDASYALGSTCWYRKKSGSTNEESISIGGRYVETVNSGSKSFSLRINDLTVEDSGTYRCGVDSWCPPVCSWAYAGCGDGTAVTVN | 97.3 | 33.5 | IC50 (read off the curve) [5]: ~100 nM
C7 VNAR (VNAR, Not the same as C7 scFv) VNAR: ARVDQTPQTITKETGESLTINCVVRDSACALVRTFWYRKKSGSTNEESISKGGRYVETVNSGSKSFSLRINDLTVEDSGTYRCKVFGWCRMRDVYGGGTVVTVN | 400 | – | –
C4 VNAR (VNAR) VNAR: ARVDQTPLTITKETGESLTINCVLRDSNCALSSTYWYRKSSGSTNEEIISKGGRYVETVNSGSNSFSLRINDLTVEDSGTYRCKVFGWCRMRDVYGGGTVVTVN | > 1000 | – | –
A9 VNAR (VNAR, VNAR (shark variable new antigen receptor single domain) from nurse sharks immunised with the PD-L1 ECD; Measured on yeast and as a soluble fragment (BLI)) VNAR: ARVDQTPQTITKETGESLTINCVVRDTACALVRTFWYRKKSGSTNEESISKGGRYVETVNRGSKSFSLRINDLTVEDSGTYRCKVFGWCRMRDVYGGGTVVTVN | 225 | 127 | –
